Reference: patent US11896644B2, “Inhibition of beta-arrestin oligomerization in tauopathy” (UNIVERSITY OF SOUTH FLORIDA, priority 2020, dated 2024)

Key:
p62 = target: T1, p62 (Homo sapiens, UniProt Q13501); assay: Interaction of β-arrestin2 variants with p62 (flag/p62 PLA); format: cell-based; conditions: Hela-V5-tau cells
T1 construct: endogenous in cells; host or cells: Hela-V5-tau cells
Source text: (§1) FIGS. 12A to 12E show β-arrestin2 interacts with p62, and β-arrestin2 oligomerization inhibits p62 self-interaction. FIG. 12A contains representative confocal images of mCherry and EGFP in Hela-V5-tau cells transfected with mCherry-GFP-p62 together with control vector, β-arrestin2-flag, or β-arrestin2 ΔIP6N-flag (Scale bar=10 μm). […] The box and whisker plots show all data points, and the box plots show all data points, the median and IQR, and the minimal and maximal values. FIG. 12C contains representative immunoblots of indicated proteins from Hela-V5-tau cells transfected GFP or GFP-β-arrestin2 with/without HA-p62. Note that β-arrestin2 is present in HA immune complexes only in the presence of HA-p62, whereas β-arrestin2 is not detected in control IgG beads. […] Lysates were subjected to IP for HA. […] FIG. 12F show quantification of flag/p62 PLA puncta/cell (N=4 independent experiments, #P<0.0001).
Given the effects on p62 autophagy flux, whether β-arrestin2 physically interacts with p62 was tested. […] Given that β-arrestin2 oligomeric mutants, ΔIP6C and ΔIP6N, reduced tau aggregates by slowing tau turnover, next tested was whether β-arrestin2 ΔIP6C and ΔIP6N mutants affect p62 self-association by a proximity ligation assays (PLA) as well as co-IP. […]

β-arrestin2 oligomers = β-arrestin2 oligomers (Rattus norvegicus, UniProt P29067); conditions: BRET and co-immunoprecipitation; cited from earlier work
Chain of β-arrestin2 oligomers (P29067 whole entry): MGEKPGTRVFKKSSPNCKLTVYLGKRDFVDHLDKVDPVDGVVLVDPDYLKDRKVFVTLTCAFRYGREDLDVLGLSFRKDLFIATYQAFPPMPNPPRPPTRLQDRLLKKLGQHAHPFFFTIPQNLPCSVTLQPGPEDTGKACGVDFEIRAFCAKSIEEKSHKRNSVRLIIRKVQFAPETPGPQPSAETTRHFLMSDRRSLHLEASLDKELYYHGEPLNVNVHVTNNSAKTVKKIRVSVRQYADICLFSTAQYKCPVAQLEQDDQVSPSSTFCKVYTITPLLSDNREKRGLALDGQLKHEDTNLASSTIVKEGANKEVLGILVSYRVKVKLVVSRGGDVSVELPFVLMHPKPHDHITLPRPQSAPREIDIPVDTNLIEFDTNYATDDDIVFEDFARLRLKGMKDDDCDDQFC

[1] = target: T2, β-arrestin2-flag and β-arrestin2-myc interaction (Rattus norvegicus, UniProt P29067); assay: PLA of β-arrestin2-flag and β-arrestin2-myc interaction in presence of mutants; format: cell-based; conditions: Hela-V5-tau cells
T2 construct: expressed in transfected cells; host or cells: Hela V5-tau cells
T2 sequence (P29067 whole entry): as above
Experimental: The assay was performed using commercially available reagents (Duolink, Sigma-Aldrich, St Louis, MO), with transfection of Hela V5-tau cells with WT β-arrestin2-flag and β-arrestin2-myc, without and with the mutant β-arrestin2 ΔIP6C or β-arrestin2 ΔIP6N constructs. Cells were fixed with 4% paraformaldehyde for 15 min at room temperature and washed with 0.2% triton in TBS. After washing, cells were blocked with 0.2% Triton in 3% Normal goat serum for 1 hour at room temperature. After applying primary antibodies overnight at 4° C., cells were washed and incubated with the PLA probes at 37° C. (1 h), washed with buffer A, incubated with ligation solution at 37° C. (30 min), washed with washing buffer A, incubated with amplification solution at 37° C. […]
(§2) When DIV 18 tau P301S cortical primary neurons were transduced with either β-arrestin2 ΔIP6C or ΔIP6N lentivirus, an approximately 50% reduction in tau compared to control was evident (FIGS. 4A,4B), which represents a key finding relevant to both mechanism of action and potential therapeutic strategies. […] To determine whether β-arrestin2 oligomerization status alters tau aggregation itself, filter-trap assays were performed from Hela-V5-tau cells transfected with β-arrestin2 variants, in which tau aggregates from detergent-soluble and-insoluble lysates were captured by cellulose acetate membranes and assessed by immunoblotting.

[2] = test system: tau in tau P301S cortical primary neurons; assay: Tau immunoblot of DIV18 tau P301S cortical primary neurons transduced with β-arrestin2 mutant lentivirus; format: cell-based, mice; conditions: DIV 18 tau P301S cortical primary neurons
Experimental: FIGS. 4A to 4E show β-arrestin2 oligomerization is required for suppressing tau turnover. […] Data are shown as box plots or mean±SEM.
Primary mouse hippocampal and cortical neuronal cultures were previously described (Woo J A, et al. (2019) Commun Biol 2:112; Woo J A, et al. (2017) Hum Mol Genet 26(20):3973-3988; Woo J A, et al. (2015) Cell Death Differ 22(6):1069-1070). Briefly, primary neurons were prepared from P0 mice. Both hippocampus and cortex were dissected separately in HBSS and digested with trypsin. Neurons were plated on glass coverslips coated with poly-D-lysine (Sigma-Aldrich, St Louis, MO, USA) and maintained in neurobasal medium with glutamax (Invitrogen, Carlsbad, CA, USA) and B27 supplement (Invitrogen, Carlsbad, CA, USA). […]
as §2

[3] = target: T3, HA-p62 and GFP-p62 interaction (Homo sapiens, UniProt Q13501); assay: Co-IP of HA-p62 and GFP-p62 interaction; format: cell-based; conditions: Hela-V5-tau cells
T3 construct: #38277; host or cells: Hela-V5-tau cells
Source text: as §1
Brain homogenates and cultured cells were lysed with RIPA buffer (50 mM Tris pH 7.4, 150 mM NaCl, 2 mM ethlenediaminetetraacetic acid, 1% NP-40, 0.1% sodium dodecyl sulfate) plus protease and phosphatase inhibitors. Proteins were extracted and centrifuged at 15000 rpm for 15 min at 4° C., and RIPA insoluble fractions were lysed with 5% SDS with 1% β-mercaptoethanol, 50 mM Tris-HCl pH 6.8, 12.5 mM EDTA, 10% glycerol, and 0.02% bromophenol blue. […]

GFP-p62 puncta = GFP-p62 puncta in Hela-V5-tau cells with/without bafilomycin A; format: cell-based; conditions: steady-state
Experimental: Data are shown as box plots or mean±SEM.
Given the effects on p62 autophagy flux, whether β-arrestin2 physically interacts with p62 was tested. […] Given that β-arrestin2 oligomeric mutants, ΔIP6C and ΔIP6N, reduced tau aggregates by slowing tau turnover, next tested was whether β-arrestin2 ΔIP6C and ΔIP6N mutants affect p62 self-association by a proximity ligation assays (PLA) as well as co-IP. […] Recent studies have shown that purified recombinant p62 spontaneously forms globular oligomers (Zaffagnini G, et al. (2018) EMBO J 37(5)). To test whether β-arrestin2 can directly affect p62 oligomerization in vitro, purified recombinant p62, β-arrestin2, and p62 mixed with β-arrestin2 with atomic force microscopy were visualized. Recombinant p62 spontaneously formed visible globular particles between 5-100 nm in diameter (FIG. 5K), whereas only very few small β-arrestin2 particles were visible under identical conditions (FIG. 5K). […] Next tested was whether β-arrestin2 oligomerization is required for bafilomycin A-induced p62 puncta formation. As expected, GFP-p62 puncta were increased upon bafilomycin A treatment in control vector transfected cells (FIGS. 5M,5N).

B1: β-arrestin2 ΔIP6N: β-arrestin2 N-terminal domain mutant (K158A, K161A, and R162A), incapable of forming oligomers; dominant negative (protein, UniProt P32121 1-409, looked up, variant K158A K161A R162A)
Beta-arrestin-2: MGEKPGTRVFKKSSPNCKLTVYLGKRDFVDHLDKVDPVDGVVLVDPDYLKDRKVFVTLTCAFRYGREDLDVLGLSFRKDLFIATYQAFPPVPNPPRPPTRLQDRLLRKLGQHAHPFFFTIPQNLPCSVTLQPGPEDTGKACGVDFEIRAFCAKSLEEASHAANSVRLVIRKVQFAPEKPGPQPSAETTRHFLMSDRSLHLEASLDKELYYHGEPLNVNVHVTNNSTKTVKKIKVSVRQYADICLFSTAQYKCPVAQLEQDDQVSPSSTFCKVYTITPLLSDNREKRGLALDGKLKHEDTNLASSTIVKEGANKEVLGILVSYRVKVKLVVSRGGDVSVELPFVLMHPKPHDHIPLPRPQSAAPETDVPVDTNLIEFDTNYATDDDIVFEDFARLRLKGMKDDDYDDQLC
modifications: GFP or YFP tag
notes: dominant negative
In the case of B1, the “interaction with p62 compared to β-arrestin2” value (p62) is listed as “much less interaction with p62”, the oligomer formation (β-arrestin2 oligomers) is listed as “incapable of forming oligomers” and the “β-arrestin2-flag and β-arrestin2-myc interaction (PLA)” value [1] is listed as “significantly reduced”. For the same molecule, the “reduction in tau compared to control” value [2] was “approximately 50%”, the “HA-p62 and GFP-p62 interaction by co-IP” value [3] was “neither β-arrestin2 ΔIP6C nor β-arrestin2 ΔIP6N alone were capable of reducing HA-p62 and GFP-p62 interaction” and the GFP-p62 puncta (GFP-p62 puncta) was “increased GFP-p62 puncta at steady-state”.
